Laboratory results published in the domain aggregation screens of Martell et al. (2025).
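Note: 20 min heating vs room temperature control held 20 min.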

Test: soluble fraction after stress (log2 fold change); higher = more stays soluble; pooled small domains, quantitative proteomics
Details: stress: 75 degC
For “HMKSGLLNLSTRKQEKIKQALLSEFSNVSLLEAKVANIVTLAEISRGSFYTYFEDIYDAYQWLASI”, the “soluble fraction (log2)” value was -0.513.
For “HMKSIFIRADELAAELDVSKALAYKMINQWNEELKAKGYTTVGGRVSRQYYYEKIYGAENVFDF”, the “soluble fraction (log2)” value was -1.76.
For “HMKSILDDVVGLGPVRKKALLSAAGGFRKLRDMDVDEVIGLGAVPEEVAREVVTVLAQYNGERDRVEGL”, the “soluble fraction (log2)” value was -0.146.
In the case of “HMKSILSEIPGIGPKKRKSLMMQFGSVKNISEASLKDLSSTKGINSNLSKEIFNFFSVEKNN”, the “soluble fraction (log2)” value is reported as -0.0299.
For “HMKSKNILLGEYKGKEVHVGEGKYGPFILYDKKFKSIGAYLTENSLMLKDLTIEDYSKIMKFTENSNSKS”, the “soluble fraction (log2)” value was -0.91.
In the case of “HMKSKNRLTKSYLDSIPGVGRKRKSILLRYFGSIDQIKRASSEDIANVPGIGKITSDLVYNYFNQ”, the “soluble fraction (log2)” value is reported as -0.811.
For “HMKSLAQELVDALGDRIRDGRLKVGDKLPSEAAIEAQYGVSRTVVREAISRLQAAGLVVTRHGIGTFIVGI”, the “soluble fraction (log2)” value was -2.45.
For “HMKSLLDQINGIGAIRKRALLNHFGSARAVESASLDEIKSVEGVEAKVAKKIYNFFHEYKNMLR”, the “soluble fraction (log2)” value was -1.51.
For “HMKSLLSRREQEVLELVSRGFSYSEIAELKNLSVHTIQTHIKSLYGKLEVHSKMEAVLEATRMGLLPQ”, the “soluble fraction (log2)” value was -2.34.
For “HMKSSLAKNLETLMQERQISQTRLSKISGVSQSYIFKILNDQIKKPSLDTLEKLATALDSTVAQLNH”, the “soluble fraction (log2)” value was -0.433.
In the case of “HMKSSTEIIYSDFLREVSNGQISEVTIQGDFVRGLFLSGSSFQTYAPKDSNLINILRDKKVRIKVHPP”, the “soluble fraction (log2)” value is reported as -1.07.
In the case of “HMKSTELSIIEALRVLGLKHGASQDSIKKSYRRLVKQHHPDLGGSADSFRKVNEAYQLLIMN”, the “soluble fraction (log2)” value is reported as -0.749.
For “HMKSVILQLHPETLRWIREEAQADMADASVIQLLNDWELGTKKPTLSQVQKLSHETHIPFGYFFLKEKPA”, the “soluble fraction (log2)” value was -0.64.
In the case of “HMKSVQIPQSITVKEFSQAIEVSVADVIKKLMSMGVMVSQNKEINVDTAILVGEEFGVTVNVA”, the “soluble fraction (log2)” value is reported as 0.609.
With “HMKSVTVIFKESGNVVSSKKLSVVATAQYVDKSRITAPAGYRIATTDSKLKISENNTVTVEVK” the “soluble fraction (log2)” value was -0.496.
In the case of “HMKSYTYNPNYLSDYNAYRLGIPLEALERLQLHRSTGRYVNSLSDFQSVTGISDSLKHSLSSSLRFPN”, the “soluble fraction (log2)” value is reported as -1.36.
For “HMKTDLQIQQDVMAELKWEPKVNAAHIGVEVKHGVVTLSGHVDSFAEKWNAEQAAKRVAGVKFIAIELDV”, the “soluble fraction (log2)” value was -2.1.
With “HMKTEIKSPLPGIVLKIFVRTGEYVDKNQRLFSLEAMKMENEIKAERAGVIAGIRISEGQSVLQDEVIMEM” the “soluble fraction (log2)” value was -3.7.
For “HMKTFQSYQTTSMSNVNLRKRANGTSTILKRIKVGDTVTVVGKSGNYYQIQFDGKEGYALIKYIDGTDSGA”, the “soluble fraction (log2)” value was -1.95.
For “HMKTFSTRLIALREAIGVNQSELARRVGVTPQAVQKWESGANGPRGKRLEKLASELRSTVGYLVSGEGDG”, the “soluble fraction (log2)” value was -0.434.
For “HMKTGAKLKNLRKMKKLSQEEVAKVLNLSYSTLSRWENDTRIPTYEDLFKLGQFYGVSVDYLSDPN”, the “soluble fraction (log2)” value was -0.98.
For “HMKTGNIITVSLVWKGKYYMIRMFFPSASRPTRSDVQNEIEKVYPGSKLSTFSVSDYEPGQPLLQV”, the “soluble fraction (log2)” value was -1.6.
In the case of “HMKTGNPYAQRNTADMYNYGRGIEKDSYLAFVWYFAAYKQGNDNAKPQIDSITASGHLSPNQQLHAKIE”, the “soluble fraction (log2)” value is reported as -0.243.
For “HMKTIQVGSTVRVNQGAKTYSGGGLASFVYKRNHKVSQLQGDRAVITYEGTVVAAVHVSDLSLIH”, the “soluble fraction (log2)” value was -0.192.
With “HMKTLELIAAIRKRIAGGYAGADGRLPNIGEIAKDFSVSPMTAQKAVRALVEAGVLTSTRRKGVFLKQPAS” the “soluble fraction (log2)” value was -2.09.
With “HMKTLGMDKGVNIALNDAGLRAEDVSNLSAHYDTEDGVPVYEIKFTAGGFSYEYQIKASDGTIIEADRDAA” the “soluble fraction (log2)” value was -0.00738.
For “HMKTMAVYPVGTRVLTSDGEIGVVEKQNSEAPERPVIKILKGADGHDYEKPDFKDLMKILTLFIVDTI”, the “soluble fraction (log2)” value was 0.182.
For “HMKTMSLSSIEKAIYKTKYENEPTSQRLSRIESSVFGTNFSQDSESERIARISSAINAQKSAK”, the “soluble fraction (log2)” value was 0.0313.
With “HMKTMTTIRKGSRGDTVATLQRKLNLIADGIFGPITDEAVRDFQKSHGLAVDGIVGPKTWAALGVGS” the “soluble fraction (log2)” value was 0.00482.
In the case of “HMKTNQINVSGLSKEKNFEVLESLDVYKFYNLFFLNKIKIDQLINSYNHIDNYSVFKKYPSSLIVKLSE”, the “soluble fraction (log2)” value is reported as 0.0213.
With “HMKTPETSEYVVQAGDSLRRILTERYGAKEQDLPYLYRQFRLLNPKVSSLDNIHAGTKVRIPLVASVL” the “soluble fraction (log2)” value was -0.135.
In the case of “HMKTPRKVFTVLIRNTEYDVYDIDGKEHQGYNDTPKTWWLYHSERLPEGMIPPIDSDSWKPYSVGT”, the “soluble fraction (log2)” value is reported as -1.27.
In the case of “HMKTTKESLLEYIQREVFTDSIHKEGLSTNEIADAFQIQRSNVSSLLNTLVKEGKLEKTTGRPVLYRIPEK”, the “soluble fraction (log2)” value is reported as -0.126.
With “HMKVEFDAMDKRILELMAKEYDTVLMARHLPLTPIVIDVRKKRIREVLNLPDATDAEIVIEAKEKDII” the “soluble fraction (log2)” value was -1.08.
For “HMKVEIVRVVKDIHIGDEITKDMVRTVEVGGYNLPDGVVKDTATVIGRFASADMVPGDYIISSKIADAP”, the “soluble fraction (log2)” value was -0.378.
In the case of “HMKVELSENEKIIYDLLSNQEVLLSEIKDKAELSNKAWDKSTKSLRKLGLVIVEKKDDNIYISKS”, the “soluble fraction (log2)” value is reported as -0.101.
For “HMKVGEIIKAKREELKIPLVNFAKELDISQGYLSQIENGIKTNPNLDIILKIIHRLDIDLAMLL”, the “soluble fraction (log2)” value was -1.93.
For “HMKVIAEESYRILVDAIEKLPPQMKSIMQLALEGKSNPEIAETLNISGETVHSQKKIAYRKLRVYLKD”, the “soluble fraction (log2)” value was -2.36.
In the case of “HMKVIETKYNTYVVKSGDTLYSVAKKYGISVTELKEINDLSNNTLSIGQKLLVPATTIIIDE”, the “soluble fraction (log2)” value is reported as -0.637.
In the case of “HMKVNMIIVMKPGARETDIQEVSNVLKSAGLGVHISKGTERTIIGVIGDKRLLNGIPLDLMHGVDKLVPIM”, the “soluble fraction (log2)” value is reported as -1.24.
For “HMKVNQFEVEGNQRYSTEEIAKASGVSKGDNLFLVNKTETARKLLDELAYVRSVNIKRKLPDTLVITVAE”, the “soluble fraction (log2)” value was -0.032.
In the case of “HMKVPDVQYMNKDSAIEALTANELKYTIVEAENENVAAGVVISQSVERDSQVAPGTSVELVVSTG”, the “soluble fraction (log2)” value is reported as 0.212.
For “HMKVQEMTANSFLTQWEAGNVKTLDILPEGIIKGELNDGTKFQLYYSSAAGLIDDVKKNPEKFANTTVSEK”, the “soluble fraction (log2)” value was 0.0538.
For “HMKVQEVDYGTFLTMVDEGKVNQVDIENSKQITFNTKGDKNKVYITGQVNDPELVNRLYKAGVEFSQEIP”, the “soluble fraction (log2)” value was 0.273.
For “HMKVSNWYFNGAPSATTPPTSQWTTEKDKKAHIGDTFTSLDKSPSPNAGKSWRYTPSYTWEEIV”, the “soluble fraction (log2)” value was 0.655.
In the case of “HMKVSRTAVKLHHANAVEVAKKLQPLFVVGDVQIEPVKDAGIILLKGPASTLADLRESIVQMDHTA”, the “soluble fraction (log2)” value is reported as -0.188.
For “HMKVTRWEDTGMKPAEAQEWQHYDFKPQEAMNWRDAGFVPLVARTWSDKGFDASEAQAWRDSVRNS”, the “soluble fraction (log2)” value was -0.618.
In the case of “HMKVVEKHIVPQIQNPIRLQEYASSIFKTITTRSGIKKAIKKQLILLNRKPANTGDWIKEGQLLELLAEE”, the “soluble fraction (log2)” value is reported as -2.53.
For “HMKVYIKDISDLSDKLKSLLIENDIDDSNKLFEVEDQVLLEIKGLGSKTIDKIKDIVTEYLKKNN”, the “soluble fraction (log2)” value was -0.266.
For “HMKVYPIMEAIANNNIELVKLLLEYHADLNIKDSNGNTPLALAKETGAKEVEDLLLQWMKQHT”, the “soluble fraction (log2)” value was -1.06.
In the case of “HMKWGDTPTVEVPNLIGMKKKDLQTQLVDLKLDISGDGEKVIKQSPEAGAKVKEGSKIRIYFG”, the “soluble fraction (log2)” value is reported as -0.332.
With “HMKWYDSDKGFGFLSQEEGEDVYVRSSALPAGVEGLKAGQRVEFGIASGRRGPQALSL” the “soluble fraction (log2)” value was -0.31.
For “HMKYKKYKLLKDLPTFKAGQLAYISKTGNLIAGTPENQKTTETGLIIMIYHETTLKKFPNILTEWFEEIE”, the “soluble fraction (log2)” value was -3.3.
In the case of “HMKYNGDRPVFNDDVAWAKWMLENPAKITSHDKENLSSMLKKPEVVMLFEAEDLSVPDLRTLAKE”, the “soluble fraction (log2)” value is reported as no less than 1.04.
In the case of “HMKYNYEAQQSDELSLVKGSRIHVLEKSSDGWWKGEIDNVVGWFPS”, the “soluble fraction (log2)” value is reported as -0.239.
For “HMKYRLLGENLQTIRKARGMKQQELADQIGINMQSLSKIERGLNYPTFETLEKIMNALGITPNELLSG”, the “soluble fraction (log2)” value was -0.82.
With “HMKYRPGDVVTLRVARMGEMGAFLDAGTGNTNDDILLHKMQQTEEIKAGQDVKVYLYLDPNRRLTASMKL” the “soluble fraction (log2)” value was -0.835.
With “HMKYSNDEVERDLYVRGVIYQIGDLVENKLDGTSGEVVRRGPNYVQYTDGENFYKAFLSALQEQK” the “soluble fraction (log2)” value was -0.369.
For “HMKYSYAELTKLQEQIAQDRNAPLTVPNALGIGLDERNNVIEITVNIADEAAAKAYYLQKYGDRISLKTTD”, the “soluble fraction (log2)” value was -0.317.
For “HMKYTEEIFNILSRGGFISANSVSSTVKRYYDALEEDFTEYYDYYKGIGFYLEAGNGYYLFTR”, the “soluble fraction (log2)” value was -3.41.
In the case of “HMKYTVKSPLPGVIMSVLVKVGDTVKASDTVISLEAMKMENAIHAGRDGKVTSIDVNVGDSVLEGHTLVTI”, the “soluble fraction (log2)” value is reported as -0.594.
With “HMLAAGTPLTVVTESSNLNIRQEPSTEAAVVGKAAKGEIVTLVEQTSGEWWKVSTKDGEEGYAYSRYL” the “soluble fraction (log2)” value was 0.678.
With “HMLAAGTSLTVDTESSNLNIRQEPSTEGVILGKAAKGEVVTLVEQSSDEWWKIKTKDGEEGYAYARYLR” the “soluble fraction (log2)” value was 0.175.
With “HMLADRANMAPAALRQIMTAIDGGNVTPKQIESATGMAHATVARALRKMLDDGLIANDGKGRYTVLT” the “soluble fraction (log2)” value was -0.212.
With “HMLADTNIHTIALKHRLANEVVEQVRPFLPETATIRAYDNMLILKSDRATLANVEQLIKKLDT” the “soluble fraction (log2)” value was 0.0428.
With “HMLALVREQIERNVSNPTDEDIRKIRHDVMEVITRAGADAATVDIAIEIDSQKNILRAIATGATEL” the “soluble fraction (log2)” value was -0.0966.
For “HMLAMHVVESVGGAEQFTKLQNFAKTQNADYQKMWNDTMNSGNVLAIKTMLSGIQSDMIAVQ”, the “soluble fraction (log2)” value was -0.276.
With “HMLAQDVIVKQDGGTILSKVLEIGTQEIAYKKWNSQDGPVYKIAKDQVLSVNYQNGEVDRFA” the “soluble fraction (log2)” value was -0.00975.
For “HMLAQISDEGAIGAVVARVLDAHPNEVARYHAGEEKVAKFLMGAAMRELRGKGDPAVVQRLLSEGLDARRV”, the “soluble fraction (log2)” value was -0.00832.
For “HMLARPTANELVKEMQRRAKEQRTELPPDAARDLLERSGQDQFLLGNEVDKLAALSGYTTITREMVAQAGT”, the “soluble fraction (log2)” value was 0.247.
